Measurements: CN114716554A (dated 2022)

Legend:
[1] = biological target: T1, LILRB4 on LILRB4阳性细胞THP-1 (human, UniProt Q8NHJ6 22-448); test: flow cytometry on THP-1 cells
T1 construct: whole, on cells; also called LILRB4阳性肿瘤细胞THP-1; 人单核白血病细胞THP-1

[2] = biological target: T2, Human LILRB4/CD85k/ILT3 Protein (ECD, His Tag), Sino Biological (human, UniProt Q8NHJ6 22-259); test: ELISA, coated LILRB4 ECD-His, antibody titrated
T2 construct: extracellular domain; Bought recombinant protein with a His tag; also called 人LILRB4蛋白; LILRB4蛋白

[3] = biological target: T3, LILRB1 Protein, Human, Recombinant (ECD, His Tag), Sino Biological (human, UniProt Q8NHL6 24-461); test: ELISA, coated protein
T3 construct: extracellular domain; Bought recombinant protein with a His tag; also called LILRB1蛋白

[4] = biological target: T4, ILT4 Protein, Human, Recombinant (ECD, His Tag), Sino Biological (human, UniProt Q8N423 22-460); test: ELISA, coated protein
T4 construct: extracellular domain; Bought recombinant protein with a His tag; also called LILRB2蛋白

[5] = biological target: T5, LILRB3 Protein, Human, Recombinant (ECD, His Tag), Sino Biological (human, UniProt O75022 24-443); test: ELISA, coated protein
T5 construct: extracellular domain; Bought recombinant protein with a His tag; also called LILRB3蛋白

[6] = biological target: T6, LILRB5/CD85c Protein, Human, Recombinant (ECD, His Tag), Sino Biological (human, UniProt O75023 24-458); test: ELISA, coated protein
T6 construct: extracellular domain; Bought recombinant protein with a His tag; also called LILRB5蛋白

Measured: binding result

T5 sequence (O75022 24-443): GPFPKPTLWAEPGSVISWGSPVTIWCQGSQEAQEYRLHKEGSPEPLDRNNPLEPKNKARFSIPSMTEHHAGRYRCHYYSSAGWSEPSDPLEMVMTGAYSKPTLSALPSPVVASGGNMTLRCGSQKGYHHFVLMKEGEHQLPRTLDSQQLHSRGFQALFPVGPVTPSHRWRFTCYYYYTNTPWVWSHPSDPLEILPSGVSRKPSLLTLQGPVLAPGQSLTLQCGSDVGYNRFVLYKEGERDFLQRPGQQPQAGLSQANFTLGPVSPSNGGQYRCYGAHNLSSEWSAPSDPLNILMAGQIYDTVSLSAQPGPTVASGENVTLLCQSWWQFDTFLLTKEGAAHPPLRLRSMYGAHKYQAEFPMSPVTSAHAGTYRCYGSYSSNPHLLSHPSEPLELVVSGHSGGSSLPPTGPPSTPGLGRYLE
T6 sequence (O75023 24-458): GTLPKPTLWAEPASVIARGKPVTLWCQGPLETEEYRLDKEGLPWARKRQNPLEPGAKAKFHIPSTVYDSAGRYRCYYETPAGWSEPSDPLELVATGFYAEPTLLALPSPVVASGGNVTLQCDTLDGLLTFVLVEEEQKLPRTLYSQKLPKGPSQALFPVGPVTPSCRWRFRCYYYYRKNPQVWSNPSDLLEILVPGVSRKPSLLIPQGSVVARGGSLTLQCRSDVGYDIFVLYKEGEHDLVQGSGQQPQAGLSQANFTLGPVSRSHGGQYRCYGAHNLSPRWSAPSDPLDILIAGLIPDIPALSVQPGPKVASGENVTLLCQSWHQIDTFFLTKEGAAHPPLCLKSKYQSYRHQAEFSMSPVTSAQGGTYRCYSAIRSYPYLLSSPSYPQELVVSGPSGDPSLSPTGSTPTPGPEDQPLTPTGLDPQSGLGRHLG
T4 sequence (Q8N423 22-460): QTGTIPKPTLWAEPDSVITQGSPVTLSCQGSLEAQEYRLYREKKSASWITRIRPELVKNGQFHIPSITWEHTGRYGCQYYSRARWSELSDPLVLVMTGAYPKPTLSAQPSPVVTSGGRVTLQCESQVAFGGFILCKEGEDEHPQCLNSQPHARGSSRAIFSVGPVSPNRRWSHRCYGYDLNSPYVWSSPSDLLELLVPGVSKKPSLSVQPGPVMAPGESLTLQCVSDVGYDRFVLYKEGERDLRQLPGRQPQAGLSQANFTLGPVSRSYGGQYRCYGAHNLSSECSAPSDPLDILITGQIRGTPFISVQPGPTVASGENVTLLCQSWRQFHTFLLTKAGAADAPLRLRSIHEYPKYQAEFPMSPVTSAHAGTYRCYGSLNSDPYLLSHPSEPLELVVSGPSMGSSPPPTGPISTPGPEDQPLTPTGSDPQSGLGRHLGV
T3 sequence (Q8NHL6 24-461): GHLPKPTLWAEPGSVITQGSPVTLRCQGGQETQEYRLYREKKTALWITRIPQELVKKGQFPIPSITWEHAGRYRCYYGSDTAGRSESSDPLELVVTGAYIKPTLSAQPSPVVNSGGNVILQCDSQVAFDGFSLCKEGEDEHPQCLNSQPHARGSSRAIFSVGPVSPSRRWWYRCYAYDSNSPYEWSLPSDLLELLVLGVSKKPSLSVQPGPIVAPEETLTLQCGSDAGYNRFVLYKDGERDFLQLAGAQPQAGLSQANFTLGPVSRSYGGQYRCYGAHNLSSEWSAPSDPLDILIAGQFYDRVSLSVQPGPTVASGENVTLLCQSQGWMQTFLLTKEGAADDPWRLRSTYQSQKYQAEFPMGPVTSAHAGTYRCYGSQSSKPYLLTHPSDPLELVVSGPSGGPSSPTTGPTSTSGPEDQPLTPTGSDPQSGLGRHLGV

B1: 全人源抗体2B9 (antibody, V domains shown)
VH: EVQLVQSGGGLIQPGGSLRLSCAASGFTVSSNYMSWVRQAPGKGLEWVSVIYSGGSTYYADSVKGRFTISRDNSKNTLYLQMNSLRAEDTAVYYCAKGATGGHDAFDIWGQGTTVTVSS
VL: not shown
notes: Fully human antibody from a phage library, made as a whole antibody in CHO-S cells; IgG4 heavy chain constant region, Ig kappa light chain
binds: [1] | [2]
no binding (tested: 10 μg/mL): all other assays above
